This is an account of results in patent US20110245474A1 (PFENEX, published 2011).

This assay has as its target T1, recombinant human granulocyte colony stimulating factor receptor (GCSF-R) (R & D Systems, cat# 381GR/CF), … (human, UniProt Q99062 25-621, limits assumed, biotinylated using NHS-LC-LC-biotin (sites not given)).
T1 construct: Bought reagent; also called b-GCSF-R; G-CSF receptor
T1 sequence (looked up): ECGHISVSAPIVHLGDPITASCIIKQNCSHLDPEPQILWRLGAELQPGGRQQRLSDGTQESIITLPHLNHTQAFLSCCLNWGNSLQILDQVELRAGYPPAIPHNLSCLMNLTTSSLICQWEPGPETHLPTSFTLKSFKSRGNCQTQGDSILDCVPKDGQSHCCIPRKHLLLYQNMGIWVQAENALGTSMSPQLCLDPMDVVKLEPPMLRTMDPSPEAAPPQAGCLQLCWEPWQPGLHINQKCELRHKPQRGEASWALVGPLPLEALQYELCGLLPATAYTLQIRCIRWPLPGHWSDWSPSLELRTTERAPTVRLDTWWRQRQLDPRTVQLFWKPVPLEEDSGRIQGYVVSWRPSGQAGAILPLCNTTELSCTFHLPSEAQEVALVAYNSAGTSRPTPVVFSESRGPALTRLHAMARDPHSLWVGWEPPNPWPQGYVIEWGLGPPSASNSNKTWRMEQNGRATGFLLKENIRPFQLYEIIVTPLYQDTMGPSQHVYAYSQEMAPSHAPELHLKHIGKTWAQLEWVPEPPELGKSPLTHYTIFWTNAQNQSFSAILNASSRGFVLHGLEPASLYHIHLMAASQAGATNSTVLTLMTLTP
As to the kind of experiment: biolayer interferometry (Octet), biotinylated GCSF-R on streptavidin sensors, soluble lysate fractions, used to quantify the protein against a standard curve. The method, then: Soluble fractions were prepared by sonication followed by centrifugation. Normalized culture broth samples (400 μL) were sonicated with the Cell Lysis Automated Sonication System (CLASS, Scinomix) with a 24 probe tip horn. The lysates were centrifuged at 14,000×rpm for 20 minutes (4° C.) and the supernatants collected (soluble fraction). Further dilutions of soluble samples for biolayer interferometry analysis were performed in ForteBio's Sample Diluent (PN, described below).
The lyophilized recombinant human granulocyte colony stimulating factor receptor (GCSF-R) (R & D Systems, cat# 381GR/CF) was reconstituted in PBS buffer (Sigma, P3813) to 0.5 mg/mL and biotinylated using NHS-LC-LC-biotin (Pierce, 21343) according to the method described in ForteBio Technical Note: “Biotinylation of Protein for Immobilization onto Streptavidin Sensors.” The biosensors (Streptavidin High Binding FA Biosensors, ForteBio, 18-0009) were hydrated in 1× kinetics buffer (10-fold dilution of 10× Kinetics Buffer, ForteBio, 18-5032 into PBS) for at least 10 minutes. […]
The soluble fraction of the strain array samples were diluted 20-fold into 1× kinetics buffer. […] The samples were read at 200 rpm, 30° C., for 120 sec, and quantitation was calculated from a standard curve at 12, 6, 3, 1.5, 0.75, 0.375, 0.188, and in some cases as low as 0.094 μg/ml.
For orientation: BLI is a label-free optical method that tracks binding on a fibre tip over time.

B1: recombinant human G-CSF protein comprising an N-terminal methionine (Met-G-CSF), produced in Pseudomonas fluorescens (ligand)
chain: MTPLGPASSLPQSFLLKCLEQVRKIQGDGAALQEKLCATYKLCHPEELVLLGHSLGIPWAPLSSCPSQALQLAGCLSQLHSGLFLYQGLLQALEGISPELGPTLDTLQLDVADFATTIWQQMEELGMAPALQPTQGAMPAFASAFQRRAGGVLVASHLQSFLEVSYRVLRHLAQP
notes: Tested as soluble fraction of P. fluorescens lysates, diluted, not purified; also called hG-CSF
On to B1, for which the binding result is recorded as “binds”.
